In the Human Domainome abundance scans (Beltran et al. 2025) one finds abundance fitness data, which are given here for 40 variants.

± gives the uncertainty stated by the source.

The labels stand for the following.
B1: Homeobox protein cut-like 1, residues 941 to 1008; numbered along this chain, P39880 (parent)
chain: QEVDTIELTRQVKEKLAKNGICQRIFGEKVLGLSQGSVSDMLSRPKPWSKLTQKGREPFIRMQLWLNG

This data set covers variants of B1. Kind of data set: abundance fitness (aPCA) (normalised: wild type 0, dead -1); higher = more abundant; growth selection in yeast, the domain comes from the species named. The settings on record: Homo sapiens.
QEVDTIELTRQVKEKLAKNGICQRIFGEKVLGLSQGSVSDMLSRPKPWSKLTQKGREPFIRMQMWLNG [L64M]: the abundance fitness is -0.049 ± 0.067.
For the variant QEVDTIELTRQVKEKLAKNGICQRIFGEKVLGLSQGSVSDMLSRPKPWSKLTQKGREPFIRMQYWLNG [L64Y], the abundance fitness was 0.005 ± 0.1.
In the case of QEVDTIELTRQVKEKLAKNGICQRIFGEKVLGLSQGSVSDMLSRPKPWSKLTQKGREPFIRMQNWLNG [L64N], the abundance fitness was determined as 0.065 ± 0.096.
Regarding QEVDTIELTRQVKEKLAKNGICQRIFGEKVLGLSQGSVSDMLSRPKPWSKLTQKGREPFIRMQEWLNG [L64E], the abundance fitness was found to be 0.185 ± 0.057.
The result for QEVDTIELTRQVKEKLAKNGICQRIFGEKVLGLSQGSVSDMLSRPKPWSKLTQKGREPFIRMQVWLNG [L64V] reads -0.135 ± 0.049; that for QEVDTIELTRQVKEKLAKNGICQRIFGEKVLGLSQGSVSDMLSRPKPWSKLTQKGREPFIRMQHWLNG [L64H], -0.137 ± 0.12; that for QEVDTIELTRQVKEKLAKNGICQRIFGEKVLGLSQGSVSDMLSRPKPWSKLTQKGREPFIRMQTWLNG [L64T], 0.015 ± 0.061.
With QEVDTIELTRQVKEKLAKNGICQRIFGEKVLGLSQGSVSDMLSRPKPWSKLTQKGREPFIRMQRWLNG [L64R], the abundance fitness turned out to be 0.103 ± 0.055.
QEVDTIELTRQVKEKLAKNGICQRIFGEKVLGLSQGSVSDMLSRPKPWSKLTQKGREPFIRMQCWLNG [L64C]: the abundance fitness is -0.181 ± 0.1.
Under QEVDTIELTRQVKEKLAKNGICQRIFGEKVLGLSQGSVSDMLSRPKPWSKLTQKGREPFIRMQLWLSG [N67S] stands -0.031 ± 0.061; under QEVDTIELTRQVKEKLAKNGICQRIFGEKVLGLSQGSVSDMLSRPKPWSKLTQKGREPFIRMQLWLQG [N67Q], -0.088 ± 0.1; under QEVDTIELTRQVKEKLAKNGICQRIFGEKVLGLSQGSVSDMLSRPKPWSKLTQKGREPFIRMQLWLMG [N67M], -0.186 ± 0.12.
Under QEVDTIELTRQVKEKLAKNGICQRIFGEKVLGLSQGSVSDMLSRPKPWSKLTQKGREPFIRMQLWLYG [N67Y] stands -0.197 ± 0.085; under QEVDTIELTRQVKEKLAKNGICQRIFGEKVLGLSQGSVSDMLSRPKPWSKLTQKGREPFIRMQLWLTG [N67T], -0.041 ± 0.07; under QEVDTIELTRQVKEKLAKNGICQRIFGEKVLGLSQGSVSDMLSRPKPWSKLTQKGREPFIRMQLWLRG [N67R], -0.016 ± 0.06.
Under QEVDTIELTRQVKEKLAKNGICQRIFGEKVLGLSQGSVSDMLSRPKPWSKLTQKGREPFIRMQLWLIG [N67I] stands -0.326 ± 0.095; under QEVDTIELTRQVKEKLAKNGICQRIFGEKVLGLSQGSVSDMLSRPKPWSKLTQKGREPFIRMQLWLGG [N67G], -0.04 ± 0.098; under QEVDTIELTRQVKEKLAKNGICQRIFGEKVLGLSQGSVSDMLSRPKPWSKLTQKGREPFIRMQLWLCG [N67C], -0.193 ± 0.092.
Regarding QEVDTIELTRQVKEKLAKNGICQRIFGEKVLGLSQGSVSDMLSRPKPWSKLTQKGREPFIRMQLWLHG [N67H], the abundance fitness was -0.128 ± 0.092.
In the case of QEVDTIELTRQVKEKLAKNGICQRIFGEKVLGLSQGSVSDMLSRPKPWSKLTQKGREPFIRMQLWLDG [N67D], the abundance fitness is -0.21 ± 0.11.
Under QEVDTIELTRQVKEKLAKNGICQRIFGEKVLGLSQGSVSDMLSRPKPWSKLTQKGREPFIRMQLWLLG [N67L] stands -0.128 ± 0.063.
Consider QEVDTIELTRQVKEKLAKNGICQRIFGEKVLGLSQGSVSDMLSRPKPWSKLTQKGREPFIRMQLWLKG [N67K], for which the abundance fitness was determined as 0.045 ± 0.068.
With QEVDTIELTRQVKEKLAKNGICQRIFGEKVLGLSQGSVSDMLSRPKPWSKLTQKGREPFIRMQLWLVG [N67V], the abundance fitness was -0.191 ± 0.1.
Under QEVDTIELTRQVKEKLAKNGICQRIFGEKVLGLSQGSVSDMLSRPKPWSKLTQKGREPFIRMQLWLAG [N67A] stands -0.03 ± 0.085.
Take QEVDTIELTRQVKEKLAKNGICQRIFGEKVLGLSQGSVSDMLSRPKPWSKLTQKGREPFIRMQLWLEG [N67E]: the abundance fitness came out at 0.072 ± 0.12.
Under QEVDTIELTRQVKEKLAKNGICQRIFGEKVLGLSQGSVSDMLSRPKPWSKLTQKGREPFIRMQLWLPG [N67P] stands -0.758 ± 0.12; under QEVDTIELTRQVKEKLAKNGICQRIFGEKVLGLSQGSVSDMLSRPKPWSKLTQKGREPFIRMQLWLNS [G68S], -0.229 ± 0.072; under QEVDTIELTRQVKEKLAKNGICQRIFGEKVLGLSQGSVSDMLSRPKPWSKLTQKGREPFIRMQLWLNR [G68R], -0.14 ± 0.066.
With QEVDTIELTRQVKEKLAKNGICQRIFGEKVLGLSQGSVSDMLSRPKPWSKLTQKGREPFIRMQLWLNQ [G68Q], the abundance fitness was -0.212 ± 0.23.
The result for QEVDTIELTRQVKEKLAKNGICQRIFGEKVLGLSQGSVSDMLSRPKPWSKLTQKGREPFIRMQLWLNC [G68C] reads -0.258 ± 0.08; that for QEVDTIELTRQVKEKLAKNGICQRIFGEKVLGLSQGSVSDMLSRPKPWSKLTQKGREPFIRMQLWLNV [G68V], -0.565 ± 0.086.
For QEVDTIELTRQVKEKLAKNGICQRIFGEKVLGLSQGSVSDMLSRPKPWSKLTQKGREPFIRMQLWLNA [G68A], the abundance fitness was -0.046 ± 0.085.
Under QEVDTIELTRQVKEKLAKNGICQRIFGEKVLGLSQGSVSDMLSRPKPWSKLTQKGREPFIRMQLWLND [G68D] stands 0.013 ± 0.095.
Under QEVDTIELTRQVKEKLAKNGICQRIFGEKVLGLSQGSVSDMLSRPKPWSKLTQKGREPFIRMQLWLNP [G68P] stands -0.576 ± 0.14.
Under QEVDTIELTRQVKEKLAKNGICQRIFGEKVLGLSQGSVSDMLSRPKPWSKLTQKGREPFIRMQLWLNI [G68I] stands -0.662 ± 0.16; under QEVDTIELTRQVKEKLAKNGICQRIFGEKVLGLSQGSVSDMLSRPKPWSKLTQKGREPFIRMQLWLNK [G68K], -0.091 ± 0.11; under QEVDTIELTRQVKEKLAKNGICQRIFGEKVLGLSQGSVSDMLSRPKPWSKLTQKGREPFIRMQLWLNF [G68F], -0.265 ± 0.19.
QEVDTIELTRQVKEKLAKNGICQRIFGEKVLGLSQGSVSDMLSRPKPWSKLTQKGREPFIRMQLWLNL [G68L]: the abundance fitness is -0.343 ± 0.12.
Consider QEVDTIELTRQVKEKLAKNGICQRIFGEKVLGLSQGSVSDMLSRPKPWSKLTQKGREPFIRMQLWLNT [G68T], for which the abundance fitness was -0.402 ± 0.15.
For QEVDTIELTRQVKEKLAKNGICQRIFGEKVLGLSQGSVSDMLSRPKPWSKLTQKGREPFIRMQLWLNH [G68H], the abundance fitness was -0.455 ± 0.14.
